Drawing on the RNAGym collection of RNA variant scans (doi:10.7554/elife.80360), this text covers self-cleavage for 32 variants.

B1: HDV Ribozyme (parent)
chain: GGCCGGCAUGGUCCCAGCCUCCUCGCUGGCGCCGGCUGGGCAACAUUCCGAGGGGACCGUCCCCUCGGUAAUGGCGAAUGGGACCCA

The data set covers variants of B1. The data set is described as follows: self-cleavage, relative activity (ratio to wild type); higher = more cleavage; co-transcriptional.
In the case of GGCCGGCAUGGUCCCAGCCCCCUCGCUGGCGCCGGCUGGGCAACAUUCCGAGGCGACCGUCCCCUCGGUAAUGGCGAAUGGGACCCA, the self-cleavage was 0.0475.

Consider GGCCGGCAUGGUCCCAGCCCCCUCGCUGGCGCCGUCUGGGCAACAUUCCGAGGGGACCGUCCCCUCGGUAAUGGCGAAUGGGACCCA, for which the self-cleavage came to 0.0978.

For the variant GGCCGGCAUGGUCCCAGCCCCCUCGCUGGCGCCGGCUGGGCAACAUUCCGAUGGGACCGUCCCCUCGGUAAUGGCGAAUGGGACCCA, the self-cleavage worked out at 0.145.

As for GGCCGGCAUGGUCCCAGCCCGCUCGCUGGCGCCGGCUGGGCAACAUUCCGAGGGGACCGUCCCCUCGGUAAUGGCGAAUGGGACCCA, the self-cleavage is 0.

Take GGCCGGCAUGGUCCCAGCCGCCUCGCUGGCGCCGGCUGGGCAACAUUCCGAGGGGACCGUCCCCUCGGUUAUGGCGAAUGGGACCCA: the self-cleavage was determined as 0.196.

Consider GGCCGGCAUGGUCCCAGCCGCCUCGCUGGCGCCGGCUGGGCAACAUUCCGAGGGGACCGUCCCCUCGGUGAUGGCGAAUGGGACCCA, for which the self-cleavage was 0.312.

As for GGCCGGCAUGGUCCCAGCCCCCACGCUGGCGCCGGCUGGGCAACAUUCCGAGGGGACCGUCCCCUCGGUAAUGGCGAAUGGGACCCA, the self-cleavage was determined as 0.115.

Turning to GGCCGGCAUGGUCCCAGCCGCCUCGCUGGAGCCGGCUGGGCAACAUUCCGAGGGGACCGUCCCCUCGGUAAUGGCGAAUGGGACCCA, the self-cleavage was 0.0378.

With GGCCGGCAUGGUCCCAGCCCCCUCGCUAGCGCCGGCUGGGCAACAUUCCGAGGGGACCGUCCCCUCGGUAAUGGCGAAUGGGACCCA, the self-cleavage came to 0.147.

Turning to GGCCGGCAUGGUCCCAGCCCCCUCGCUUGCGCCGGCUGGGCAACAUUCCGAGGGGACCGUCCCCUCGGUAAUGGCGAAUGGGACCCA, the self-cleavage stood at 0.119.

Take GGCCGGCAUGGUCCCAGCCCCCUCGCUGGCGCCGGCUGGGCAACAUUCCGAGGGGACCGUCCACUCGGUAAUGGCGAAUGGGACCCA: the self-cleavage was 0.0898.

As for GGCCGGCAUGGUCCCAGCCCCCUCGCUGGCGCCUGCUGGGCAACAUUCCGAGGGGACCGUCCCCUCGGUAAUGGCGAAUGGGACCCA, the self-cleavage was 0.086.

For the variant GGCCGGCAUGGUCCCAGCCCCCUCGCUGGCGCCGGCUGGGCAACAUUCCGAGGGGACCGUCCCCUCGGUAAUGGCGAAUGGGAGCCA, the self-cleavage was 0.0978.

Consider GGCCGGCAUGGUCCCAGCCCCCUCGCUGGCGCCGGCUGGGCAACAUUCCGAGGGGACCGUCCCCUCGGUAAUGGCGAAUGGGAACCA, for which the self-cleavage came to 0.166.

Turning to GGCCGGCAUGGUCCCAGCCCCCUCGCUGGCGCCGGCUGGGCAACAUUCCGAGGGGACCAUCCCCUCGGUAAUGGCGAAUGGGACCCA, the self-cleavage is 0.208.

Regarding GGCCGGCAUGGUCCCAGCCCCCUCGCUGGCUCCGGCUGGGCAACAUUCCGAGGGGACCGUCCCCUCGGUAAUGGCGAAUGGGACCCA, the self-cleavage was 0.141.

On to GGCCGGCAUGGUCCCAGCCCCCUCACUGGCGCCGGCUGGGCAACAUUCCGAGGGGACCGUCCCCUCGGUAAUGGCGAAUGGGACCCA, for which the self-cleavage worked out at 0.458.

As to GGCCGGCAUGGUCCCAGCCCCCUCGCUGGCGCCGGCUGGGCAAAAUUCCGAGGGGACCGUCCCCUCGGUAAUGGCGAAUGGGACCCA, the self-cleavage is 0.

With GGCCGGCAUGGUCCCAGCCCCCUCGCUGGCGCCGGCUGGGCAACAUUCCGAGGGGACCGGCCCCUCGGUAAUGGCGAAUGGGACCCA, the self-cleavage was found to be 0.199.

As to GGCCGGCAUGGUCCCAGCCCCCUCGCUGGCGCCGGCUGGGCAACAUUCCGAGGGGACCGUCCCCUCGGUAAUGGCGAAUGGGACCCG, the self-cleavage turned out to be 0.282.

As for GGCCGGCAUGGUCCCAGCCGCCUCGUUGGCGCCGGCUGGGCAACAUUCCGAGGGGACCGUCCCCUCGGUAAUGGCGAAUGGGACCCA, the self-cleavage is 0.256.

For GGCCGGCAUGGUCCCAGCCGCCUCGCUGGCGCCGGCUGGGCAACCUUCCGAGGGGACCGUCCCCUCGGUAAUGGCGAAUGGGACCCA, the self-cleavage amounted to 0.158.

Take GGCCGGCAUGGUCCCAGCCCCCUCGCUGGCGCCGGCCGGGCAACAUUCCGAGGGGACCGUCCCCUCGGUAAUGGCGAAUGGGACCCA: the self-cleavage turned out to be 0.252.

With GGCCGGCAUGGUCCCAGCCCCCUCGCUGGCGCCGGCUGAGCAACAUUCCGAGGGGACCGUCCCCUCGGUAAUGGCGAAUGGGACCCA, the self-cleavage worked out at 0.

For the variant GGCCGGCAUGGUCCCAGCCGCCUCGCUGGCGCCGGCUGGGCAACAUUCCGUGGGGACCGUCCCCUCGGUAAUGGCGAAUGGGACCCA, the self-cleavage is 0.332.

Regarding GGCCGGCAUGGUCCCAGCCCCCUCGCUGGCGCCGGCUGGGCAACAUUCCGAGGGGACCGUCCCCUCUGUAAUGGCGAAUGGGACCCA, the self-cleavage was 0.175.

For the variant GGCCGGCAUGGUCCCAGCCGCCUCGCUGGCGCCGGCUGGGCAACAUUCCGAGGGGACCGUCCCCUCGGUAAUGGCGAGUGGGACCCA, the self-cleavage is 0.

In the case of GGCCGGCAUGGUCCCAGCCCCCUCGCUGGCGCCGGCUGGGCAACAUUCCGAGGGGACCGUCCCCUCGGUAAUGGCGAAUGGGACCAA, the self-cleavage came to 0.158.

On to GGCCGGCAUGGUCCCAGCCCCCUCGCUGGCGCCGGCUGGGCAACAUUCCGAGGGGACCGUCGCCUCGGUAAUGGCGAAUGGGACCCA, for which the self-cleavage came to 0.0665.

For GGCCGGCAUGGUCCCAGCCCCCUGGCUGGCGCCGGCUGGGCAACAUUCCGAGGGGACCGUCCCCUCGGUAAUGGCGAAUGGGACCCA, the self-cleavage came out at 0.115.

On to GGCCGGCAUGGUCCCAGCCCCCUCGCUGGCGCCGGCUGGGCAACAUUCCGAGGGGACCGUCCCCUCGGGAAUGGCGAAUGGGACCCA, for which the self-cleavage came out at 0.0639.

Consider GGCCGGCAUGGUCCCAGCCGCCUCGCUGGCGCCGGCUGGGCCACAUUCCGAGGGGACCGUCCCCUCGGUAAUGGCGAAUGGGACCCA, for which the self-cleavage amounted to 0.0875.
